Here are results for 4 molecules from publication PMC4267655, “Brr2p carboxy-terminal Sec63 domain modulates Prp16 splicing RNA helicase” (Nucleic Acids Research, 2014).

The target in series [1] is T1, Ded1p (Saccharomyces cerevisiae, UniProt P06634).
T1 construct: gene DED1; recombinant from E. coli BL21 RIL, purified as previously described
In words: ATPase assay, released Pi. Format: biochemical. The following applies: 5 nM enzyme, 1 mM ATP, 50 ng/μl total yeast RNA, 20 mM Tris-HCl pH 7.5, 50 mM KAc, 1 mM MgOAc, 30°C.

Series [2] addresses T2, Prp22p (Saccharomyces cerevisiae, UniProt P24384).
T2 construct: gene PRP22; recombinant from E. coli BL21 RIL, purified as previously described
T2 sequence (P24384 1-1145): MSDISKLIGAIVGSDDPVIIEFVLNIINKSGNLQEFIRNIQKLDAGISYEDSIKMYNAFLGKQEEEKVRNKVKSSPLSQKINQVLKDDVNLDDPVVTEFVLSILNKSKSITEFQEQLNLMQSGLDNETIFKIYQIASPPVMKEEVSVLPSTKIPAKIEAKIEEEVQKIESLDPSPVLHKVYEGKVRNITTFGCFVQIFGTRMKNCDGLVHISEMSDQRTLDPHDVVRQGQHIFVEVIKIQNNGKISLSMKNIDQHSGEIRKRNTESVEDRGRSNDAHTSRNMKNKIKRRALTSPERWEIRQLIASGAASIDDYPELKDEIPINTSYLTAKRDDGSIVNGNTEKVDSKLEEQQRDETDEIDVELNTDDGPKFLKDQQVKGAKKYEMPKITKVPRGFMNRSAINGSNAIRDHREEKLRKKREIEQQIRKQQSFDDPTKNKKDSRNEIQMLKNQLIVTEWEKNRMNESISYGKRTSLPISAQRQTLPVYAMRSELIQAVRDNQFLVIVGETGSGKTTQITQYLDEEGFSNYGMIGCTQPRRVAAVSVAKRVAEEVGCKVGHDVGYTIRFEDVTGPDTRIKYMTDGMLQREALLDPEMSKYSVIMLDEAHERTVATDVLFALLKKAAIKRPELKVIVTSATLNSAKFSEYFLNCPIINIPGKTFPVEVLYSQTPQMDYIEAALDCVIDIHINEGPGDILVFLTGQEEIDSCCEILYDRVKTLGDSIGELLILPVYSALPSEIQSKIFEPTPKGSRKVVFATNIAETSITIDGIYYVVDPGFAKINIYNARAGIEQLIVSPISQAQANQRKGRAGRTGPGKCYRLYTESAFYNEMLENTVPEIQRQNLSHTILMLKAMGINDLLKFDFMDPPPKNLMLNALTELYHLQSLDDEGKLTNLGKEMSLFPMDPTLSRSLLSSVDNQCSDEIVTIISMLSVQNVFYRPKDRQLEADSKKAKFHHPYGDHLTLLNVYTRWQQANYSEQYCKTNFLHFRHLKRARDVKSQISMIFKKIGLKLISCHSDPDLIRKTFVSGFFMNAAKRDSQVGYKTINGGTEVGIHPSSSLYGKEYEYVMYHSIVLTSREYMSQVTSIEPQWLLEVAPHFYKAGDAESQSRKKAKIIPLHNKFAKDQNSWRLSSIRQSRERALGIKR
The series is described as follows: ATPase assay, released Pi. Format: biochemical. The following applies: 1 mM ATP, 50 ng/μl total yeast RNA, 20 mM Tris-HCl pH 7.5, 75 mM KCl, 1 mM MgSO4, 30°C.

In series [3] the target is T3, Prp16p (UniProt P15938 1-1071).
T3 sequence: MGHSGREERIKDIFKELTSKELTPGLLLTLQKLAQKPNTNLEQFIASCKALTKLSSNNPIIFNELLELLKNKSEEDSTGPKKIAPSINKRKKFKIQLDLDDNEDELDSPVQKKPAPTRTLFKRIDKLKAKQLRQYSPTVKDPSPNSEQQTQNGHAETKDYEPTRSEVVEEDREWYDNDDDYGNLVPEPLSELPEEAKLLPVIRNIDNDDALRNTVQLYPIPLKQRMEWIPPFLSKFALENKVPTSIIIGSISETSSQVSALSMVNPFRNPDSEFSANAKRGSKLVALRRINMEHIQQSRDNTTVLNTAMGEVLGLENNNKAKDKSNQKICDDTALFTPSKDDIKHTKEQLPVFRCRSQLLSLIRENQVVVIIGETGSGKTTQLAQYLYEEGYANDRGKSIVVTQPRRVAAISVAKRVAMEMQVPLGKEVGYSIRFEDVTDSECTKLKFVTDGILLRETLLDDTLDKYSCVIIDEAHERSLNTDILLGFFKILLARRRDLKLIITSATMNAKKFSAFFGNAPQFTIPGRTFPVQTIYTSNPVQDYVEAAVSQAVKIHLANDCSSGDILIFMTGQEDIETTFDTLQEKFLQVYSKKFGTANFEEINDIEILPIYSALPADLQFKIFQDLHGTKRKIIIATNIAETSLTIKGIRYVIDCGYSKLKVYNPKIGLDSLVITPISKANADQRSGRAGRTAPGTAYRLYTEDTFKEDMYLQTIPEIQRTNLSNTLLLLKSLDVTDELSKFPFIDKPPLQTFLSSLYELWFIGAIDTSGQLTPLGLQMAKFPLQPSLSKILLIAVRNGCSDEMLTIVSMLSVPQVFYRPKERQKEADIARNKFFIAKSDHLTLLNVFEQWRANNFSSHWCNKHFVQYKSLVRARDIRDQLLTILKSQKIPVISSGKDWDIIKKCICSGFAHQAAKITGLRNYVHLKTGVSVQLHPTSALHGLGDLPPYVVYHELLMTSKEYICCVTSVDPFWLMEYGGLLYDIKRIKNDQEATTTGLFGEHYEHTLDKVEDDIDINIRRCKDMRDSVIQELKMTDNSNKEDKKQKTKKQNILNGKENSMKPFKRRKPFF
The series is described as follows: EMSA; no ATP; 2 nM RNA; EMSA in the Prp16p ATPase assay buffer without ATP (composition, pH and temperature not in the material), 2 nM 5' 32P-labeled RNA. The following applies: protein: recombinant; tags: His (pET22b-PRP16-His); label: 5' 32P; single stranded. In general terms: Mobility shift assays separate free from complexed probe on a gel.

For series [4], the target named is T4, recombinant Prp16p (wild type) (budding yeast, UniProt P15938 1-1071).
T4 construct: Prp16p, budding yeast; also called WT Prp16p; source: E. coli BL21 RIL, purified (NiNTA-agarose)
T4 sequence (looked up): T3 sequence
In words: native gel or EMSA; apparent; Prp16p (300 nM) with 2-nM 32P-labelled 44-nt ssRNA and increasing amounts of Sec63-2p or Sec63-2 R1899Gp; loss of the Prp16p-RNA complex; buffer of the Prp16p ATPase assay without ATP. As to conditions: both partners purified.

Series [5] addresses T4, recombinant Prp16p (wild type). In words: cell-based or functional assay.

Residue numbers refer to the chain shown, from its start. Numbers in names are those of the source.

T1 sequence (P06634 2-604): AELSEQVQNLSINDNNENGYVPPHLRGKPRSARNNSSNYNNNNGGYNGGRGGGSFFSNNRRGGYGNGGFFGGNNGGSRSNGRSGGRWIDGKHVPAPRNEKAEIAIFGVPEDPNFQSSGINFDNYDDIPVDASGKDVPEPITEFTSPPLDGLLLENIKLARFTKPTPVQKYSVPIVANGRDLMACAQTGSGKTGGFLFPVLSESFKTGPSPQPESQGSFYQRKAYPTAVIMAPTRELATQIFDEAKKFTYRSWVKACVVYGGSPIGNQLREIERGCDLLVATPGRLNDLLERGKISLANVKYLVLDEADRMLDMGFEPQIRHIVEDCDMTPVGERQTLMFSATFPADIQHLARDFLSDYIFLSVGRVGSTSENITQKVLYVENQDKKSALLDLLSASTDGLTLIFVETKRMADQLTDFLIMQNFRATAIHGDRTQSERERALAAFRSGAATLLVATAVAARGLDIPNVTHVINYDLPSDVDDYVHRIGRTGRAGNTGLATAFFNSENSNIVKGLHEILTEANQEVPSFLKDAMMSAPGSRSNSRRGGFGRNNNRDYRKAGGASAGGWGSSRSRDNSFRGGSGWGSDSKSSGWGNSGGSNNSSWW

Regarding `Nc1ncnc2c1ncn2[C@@H]1O[C@H](COP(=O)(O)OP(=O)(O)OP(=O)(O)O)[C@@H](O)[C@H]1O` [ATP], the “ATPase assay, released Pi” value in series [1] and in series [2] was “no effect of Sec63-2p on the ATPase activities of Ded1p” throughout.

B1: 44-nt ssRNA (ssRNA)
RNA: GGGCGAAUUCAAAACAAAACAAAACUAGCACCGUAAAGCAAGCU
B1: the binding result in series [3] was “binds”.

B2: recombinant Brr2 Sec63-2p (domain or fragment, budding yeast, UniProt P32639 1846-2160, looked up)
chain: TLSNGLIASHYGVSFFTIQSFVSSLSNTSTLKNMLYVLSTAVEFESVPLRKGDRALLVKLSKRLPLRFPEHTSSGSVSFKVFLLLQAYFSRLELPVDFQNDLKDILEKVVPLINVVVDILSANGYLNATTAMDLAQMLIQGVWDVDNPLRQIPHFNNKILEKCKEINVETVYDIMALEDEERDEILTLTDSQLAQVAAFVNNYPNVELTYSLNNSDSLISGVKQKITIQLTRDVEPENLQVTSEKYPFDKLESWWLVLGEVSKKELYAIKKVTLNKETQQYELEFDTPTSGKHNLTIWCVCDSYLDADKELSFEI
notes: Brr2p, budding yeast, carboxy-terminal Sec63-2 domain; detected with anti-His-HRP antibodies; also called WT Sec63-2p; Brr2 Sec63-2p domain; source: E. coli BL21 RIL, purified (Hi-Trap IMAC HP charged with Ni)
B2: in series [4], the “Kd (dissociation constant)” value was found to be 479 ± 2 nM. Moreover, in series [5], the “ATPase activity of Prp16p (10 nM) in vitro with increasing molar excess of Sec63-2p, in presence of 50-ng/μl total yeast RNA” value came out at 2 fold.

B3: recombinant Brr2 Sec63-2 R1899Gp (domain or fragment, budding yeast, UniProt P32639 1846-2160, looked up)
chain: B2 chain with R54G
notes: Brr2p, budding yeast, carboxy-terminal Sec63-2 domain; also called Sec63-2 R1899G mutant protein; Brr2-R1899G mutant protein; source: E. coli BL21 RIL, purified (Hi-Trap IMAC HP charged with Ni)
Regarding B3, the “Kd (dissociation constant)” value in series [4] stood at 3097 ± 3 nM.
